Columns and labels:
[1] = target: T1, RlmH (ribosomal large-subunit methyltransferase H) (Escherichia coli, UniProt P0A8I8); assay: isothermal titration calorimetry, sequential binding model; conditions: 50 mM sodium phosphate pH 6.8, 200 mM KCl, 5% glycerol, 1 mM β-mercaptoethanol, 25 °C; first SAM site of the dimer; read-out: Calculated K D1
T1 construct: full length (155 residues, ~17 kDa), first Met replaced by MHHHHHHV (N-terminal His6 tag kept), expressed in E. coli BLR(DE3), homodimer
Description: (§1) isothermal titration calorimetry, sequential binding model on RlmH (ribosomal large-subunit methyltransferase H)

[2] = target: RlmH (ribosomal large-subunit methyltransferase H) (Escherichia coli, UniProt P0A8I8, E138A); assay: as above; conditions: 50 mM sodium phosphate pH 6.8, 200 mM KCl, 5% glycerol, 1 mM β-mercaptoethanol, 25 °C; first SAM site of the dimer; read-out: Calculated K D1
Description: as §1

[3] = target: RlmH (ribosomal large-subunit methyltransferase H) (Escherichia coli, UniProt P0A8I8, E138Q); assay: as above; conditions: 50 mM sodium phosphate pH 6.8, 200 mM KCl, 5% glycerol, 1 mM β-mercaptoethanol, 25 °C; first SAM site of the dimer; read-out: Calculated K D1
Description: as §1

[4] = target: T1, RlmH (ribosomal large-subunit methyltransferase H); assay: X-ray crystal structure, […] Å; conditions: co-crystallised with 2 mM sinefungin, pH 8.5, 16 °C; SAM-binding pocket, two ligands per dimer
[5] = system: RlmH E138A (Escherichia coli (ASKA clone JW0631)); assay: competition; conditions: pseudouridine 1915 lacking N3-methylation (delta-rlmH), Single-turnover competitive methylation assay, mutant pre-incubated with heat-activated 70S ribosomes 20 min at 25 C before wild-type RlmH-[3H]SAM
[6] = system: RlmH E138Q (Escherichia coli (ASKA clone JW0631)); assay: competition; conditions: pseudouridine 1915 lacking N3-methylation (delta-rlmH), Single-turnover competitive methylation assay, mutant pre-incubated with heat-activated 70S ribosomes 20 min at 25 C before wild-type RlmH-[3H]SAM
[7] = system: RlmH H153F (Escherichia coli (ASKA clone JW0631)); assay: competition; conditions: pseudouridine 1915 lacking N3-methylation (delta-rlmH), Single-turnover competitive methylation assay, mutant pre-incubated with heat-activated 70S ribosomes 20 min at 25 C before wild-type RlmH-[3H]SAM
[8] = system: RlmH R154A (Escherichia coli (ASKA clone JW0631)); assay: competition; conditions: pseudouridine 1915 lacking N3-methylation (delta-rlmH), Single-turnover competitive methylation assay, mutant pre-incubated with heat-activated 70S ribosomes 20 min at 25 C before wild-type RlmH-[3H]SAM
[9] = system: RlmH Y152F (Escherichia coli (ASKA clone JW0631)); assay: competition; conditions: pseudouridine 1915 lacking N3-methylation (delta-rlmH), Single-turnover competitive methylation assay, mutant pre-incubated with heat-activated 70S ribosomes 20 min at 25 C before wild-type RlmH-[3H]SAM
[10] = target: the molecule itself; assay: SEC-MALS; Superdex S-200 HR10/30; 50 mM potassium phosphate pH 7.0, 300 mM KCl, 2 mM DTT, 5% glycerol; dialyzed protein injected at ~20 and ~200 µM (0.35 mg/ml and 3.85 mg/ml); same result at both

Sequence of RlmH (ribosomal large-subunit methyltransferase H) (Escherichia coli, UniProt P0A8I8, E138A) (P0A8I8 2-155 E138A): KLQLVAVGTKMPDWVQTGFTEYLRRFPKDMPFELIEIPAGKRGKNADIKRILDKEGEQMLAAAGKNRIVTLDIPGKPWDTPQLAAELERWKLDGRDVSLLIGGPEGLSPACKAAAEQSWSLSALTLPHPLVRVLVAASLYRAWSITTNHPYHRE
Sequence of RlmH (ribosomal large-subunit methyltransferase H) (Escherichia coli, UniProt P0A8I8, E138Q) (P0A8I8 2-155 E138Q): as the sequence (P0A8I8 2-155 E138A) above, with A137Q counted along it

**Q.** With C[S+](CC[C@H](N)C(=O)O)C[C@H]1O[C@@H](n2cnc3c(N)ncnc32)[C@H](O)[C@@H]1O (stereo partly shown) [SAM, S-adenosyl-methionine] as the molecule, how does the Kd [1] read?
**A.** 5.58 ± 0.31 µM

**Q.** What about the Kd [2] of the same molecule?
**A.** 6.7 ± 0.77 µM

**Q.** And the Kd [3]?
**A.** 7.05 ± 0.56 µM

**Q.** How did the “X-ray crystal structure, 2.1 Å” value [4] turn out when Nc1ncnc2c1ncn2[C@@H]1O[C@H](C[C@@H](N)CC[C@H](N)C(=O)O)[C@@H](O)[C@H]1O [SFG, sinefungin] was run?
**A.** crystal structures of E. coli RlmH bound to the cofactor SAM or to the inhibitor sinefungin

**Q.** For “delta-rlmH 70S ribosome (23S rRNA helix 69, pseudouridine 1915)”, which IC50 [5] is on record?
**A.** 3000 nM

**Q.** What about the IC50 [6] of the same molecule?
**A.** 3000 nM

**Q.** What about the IC50 [7] of the same molecule?
**A.** 3000 nM

**Q.** What about the IC50 [8] of the same molecule?
**A.** 40 µM

**Q.** What about the IC50 [9] of the same molecule?
**A.** 3000 nM

B1: ribosomal large-subunit methyltransferase H (RlmH), wild type, His6-tagged (enzyme, E. coli, UniProt P0A8I8 2-155, looked up)
chain: KLQLVAVGTKMPDWVQTGFTEYLRRFPKDMPFELIEIPAGKRGKNADIKRILDKEGEQMLAAAGKNRIVTLDIPGKPWDTPQLAAELERWKLDGRDVSLLIGGPEGLSPACKAAAEQSWSLSALTLPHPLVRVLVAESLYRAWSITTNHPYHRE
notes: RlmH (YbeA) of E. coli, 155 amino acids; rlmH gene from ASKA clone JW0631 in pET24b; no cleavage of the tag is described; Limits 2-155 follow from 'first methionine is replaced' and '155 amino acids'; also called YbeA; WT; source: E. coli BLR(DE3), purified (nickel IMAC twice, SEC on Superdex75); not shown: His6, N-terminal, kept
**Q.** B1 was tested. Which “stoichiometry N” value [10] did it give?
**A.** 2

B2: RlmH R154A, His6-tagged (enzyme, E. coli, UniProt P0A8I8 2-155, looked up)
chain: KLQLVAVGTKMPDWVQTGFTEYLRRFPKDMPFELIEIPAGKRGKNADIKRILDKEGEQMLAAAGKNRIVTLDIPGKPWDTPQLAAELERWKLDGRDVSLLIGGPEGLSPACKAAAEQSWSLSALTLPHPLVRVLVAESLYRAWSITTNHPYHAE
notes: RlmH (YbeA) of E. coli, 155 amino acids; source: E. coli BLR(DE3), purified as the wild-type protein; not shown: His6, N-terminal, kept
**Q.** How did the “stoichiometry N” value [10] turn out when B2 was run?
**A.** 2

B3: RlmH Y152F, His6-tagged (enzyme, E. coli, UniProt P0A8I8 2-155, looked up)
chain: KLQLVAVGTKMPDWVQTGFTEYLRRFPKDMPFELIEIPAGKRGKNADIKRILDKEGEQMLAAAGKNRIVTLDIPGKPWDTPQLAAELERWKLDGRDVSLLIGGPEGLSPACKAAAEQSWSLSALTLPHPLVRVLVAESLYRAWSITTNHPFHRE
notes: as for B2
**Q.** B3 was tested. Which “stoichiometry N” value [10] did it give?
**A.** 2

B4: RlmH H153F, His6-tagged (enzyme, E. coli, UniProt P0A8I8 2-155, looked up)
chain: KLQLVAVGTKMPDWVQTGFTEYLRRFPKDMPFELIEIPAGKRGKNADIKRILDKEGEQMLAAAGKNRIVTLDIPGKPWDTPQLAAELERWKLDGRDVSLLIGGPEGLSPACKAAAEQSWSLSALTLPHPLVRVLVAESLYRAWSITTNHPYFRE
notes: as for B2
**Q.** How did the “stoichiometry N” value [10] turn out when B4 was run?
**A.** 2

From publication PMC5430550 (Scientific Reports, 2017)
